The values below come from patent publication US20040018971A1 (published 2004).

B1: Herw/neu414.Y2F9 (peptide)
peptide: AYPDSLPDF
notes: HER2/neu analog peptide; label printed with a misprint (Herw/neu414)
B2: HER2/neu peptide, position 888, 9 amino acids (peptide)
peptide: WMALESILR
notes: Synthetic peptide; also called Her2/neu.888 (9-mer)
B3: HER2/neu peptide, position 973, 9 amino acids (peptide)
peptide: VSEFSRMAR
notes: Synthetic peptide; also called Her2/neu.973 (9-mer)
B4: HER2/neu peptide, position 129, 10 amino acids (peptide)
peptide: VTGASPGGLR
notes: Synthetic peptide; also called Her2/neu.129 (10-mer)
B5: HER2/neu peptide, position 888, 10 amino acids (peptide)
peptide: WMALESILRR
notes: Synthetic peptide; also called Her2/neu.888 (10-mer)
B6: HER2/neu peptide, position 739, 9 amino acids (peptide)
peptide: WIPDGENVK
notes: Synthetic peptide; also called Her2/neu.739 (9-mer)
B7: HER2/neu peptide, position 959, 10 amino acids (peptide)
peptide: WMIDSECRPR
notes: Synthetic peptide; also called Her2/neu.959 (10-mer)
B8: HER2/neu peptide, position 835, 10 amino acids (peptide)
peptide: YLEDVRLVHR
notes: Synthetic peptide; also called Her2/neu.835 (10-mer)
B9: HER2/neu peptide, position 83, 10 amino acids (peptide)
peptide: YVLIAHNQVR
notes: Synthetic peptide; also called Her2/neu.83 (10-mer)

The target of the first assay is HLA-A*2402 (human). Nature of the assay: inhibition of 125I-labeled probe peptide binding to purified HLA-A*2402, gel filtration. (In general: In gel filtration, larger molecules generally elute earlier.)
Broadly, the IC50 is the concentration needed to halve the response being measured. Low values mean greater potency in that assay, high ones weaker potency in that assay. With RYTHQSDVF (HER2/neu analog peptide) [Her2/neu.898.Y2F9], the concentration for half-maximal inhibition (IC50) turned out to be 60 nM. In other words, the double-digit nanomolar range. On to AYSLTLQGL (HER2/neu peptide) [Her2/neu.440], for which the IC50 worked out at 92 nM. This IC50 lies about 1.5-fold higher than the previous one. The same measure, in the same setting: the result for AYSLTLQGF (HER2/neu analog peptide) [Her2/neu.440.F9] reads 52 nM; that for B1, 24 nM; that for LYISAWPDSL (HER2/neu peptide) [Her2/neu.410], 143 nM. For LYISAWPDSF (HER2/neu analog peptide) [Her2/neu.410.F10], the half-maximal inhibitory concentration (IC50) is 10 nM. The same measure, in the same setting: the result for SYMPIWKF (HER2/neu peptide) [Her2/neu.609] reads 38 nM; that for SYGVTVWEL (HER2/neu peptide) [Her2/neu.907], 100 nM.

The target in another assay is T1, HLA-A*0301 (human).
T1 construct: also called A3
Nature of the assay: competition with 125I-labelled standard peptide for purified HLA, gel filtration.
Regarding B2, the relative binding ratio is -0.0002 ratio (IC50 of standard peptide / IC50 of test peptide). Take B3: the relative binding ratio was -0.0002 ratio (IC50 of standard peptide / IC50 of test peptide). The same measure, in the same setting: the result for B4 reads 0.0002 ratio (IC50 of standard peptide / IC50 of test peptide). Same read-out and setting: the result for B5 reads 0.0085 ratio (IC50 of standard peptide / IC50 of test peptide); that for B6, 0.0002 ratio (IC50 of standard peptide / IC50 of test peptide); that for B7, -0.0002 ratio (IC50 of standard peptide / IC50 of test peptide). Still for that read-out and setting: the figure for B8 is 0.0003 ratio (IC50 of standard peptide / IC50 of test peptide). With B9, the relative binding ratio is 0.0043 ratio (IC50 of standard peptide / IC50 of test peptide).

For the next assay, the target named is T2, HLA-A*1101 (human).
T2 construct: The construct is not described
The assay is described as above.
Take B2: the relative binding ratio was -0.0002 ratio (IC50 of standard peptide / IC50 of test peptide).

B3: the relative binding ratio was 0.0021 ratio (IC50 of standard peptide / IC50 of test peptide).

Regarding B4, the relative binding ratio is 0.0005 ratio (IC50 of standard peptide / IC50 of test peptide).

Consider B5, for which the relative binding ratio is 0.0016 ratio (IC50 of standard peptide / IC50 of test peptide).

As to B6, the relative binding ratio is 0.0001 ratio (IC50 of standard peptide / IC50 of test peptide). On the same count and under the same terms, the figure for B7 is 0.0002 ratio (IC50 of standard peptide / IC50 of test peptide); for B8 it is 0.0001 ratio (IC50 of standard peptide / IC50 of test peptide); for B9 it is 0.0013 ratio (IC50 of standard peptide / IC50 of test peptide).

For the next assay, the target named is HLA-A*1101 (human). Put plainly: competition with 125I-labelled probe peptide for purified HLA-A*1101, gel filtration; ratio to standard peptide 940.06 [..] (6.0 nM).
For the molecule YLEDVRLVHR (also called Her2/neu.835), the “relative binding ratio (IC50 of standard peptide / IC50 of test peptide)” value stood at 0.0001 ratio. Still for that read-out and setting: the result for WMIDSECRPR (also called Her2/neu.959) reads 0.0002 ratio; that for VTGASPGGLR (also called Her2/neu.129), 0.0005 ratio; that for WMALESILRR (also called Her2/neu.888), 0.0016 ratio. Same read-out and setting: the figure for WIPDGENVK (also called Her2/neu.739) [HER2/neu peptide, printed position 730 (taken as 739), 9 amino acids] is 0.0001 ratio; for VTAEDGTQR (also called Her2/neu.322) [HER2/neu peptide, position 322, 9 amino acids] it is 0.014 ratio; for YVMAGVGSPY (also called Her2/neu.772) [HER2/neu peptide, position 772, 10 amino acids] it is 0.012 ratio. As for WMALESILR (also called Her2/neu.888), the “relative binding ratio (IC50 of standard peptide / IC50 of test peptide)” value was -0.0002 ratio. The same measure, in the same setting: the result for VSEFSRMAR (also called Her2/neu.973) reads 0.0021 ratio. Same read-out and setting: the figure for YVLIAHNQVR (also called Her2/neu.83) is 0.0013 ratio; for VVQGNLELTY (also called Her2/neu.55) [HER2/neu peptide, position 55, 10 amino acids] it is 0.011 ratio.

For another assay, the target named is T3, HLA-A*0301 (human).
T3 construct: also called HLA-A3
Nature of the assay: competition with 125I-labelled probe peptide for purified HLA-A*0301, gel filtration; ratio to standard peptide 941.12.
For the molecule ESMPNPEGR (Synthetic peptide) [HER2/neu peptide, position 280, 9 amino acids (ESMPNPEGR)], the “relative binding ratio (IC50 of standard peptide / IC50 of test peptide)” value worked out at 0.0003 ratio. Turning to DLSYMPIWK (Synthetic peptide) [HER2/neu peptide, position 607, 9 amino acids (DLSYMPIWK)], the “relative binding ratio (IC50 of standard peptide / IC50 of test peptide)” value is 0.0005 ratio. On the same count and under the same terms, the figure for EVTAEDGTQR (Synthetic peptide) [HER2/neu peptide, position 321, 10 amino acids (EVTAEDGTQR)] is 0.0002 ratio; for DSECRPRFR (Synthetic peptide) [HER2/neu peptide, position 962, 9 amino acids (DSECRPRFR)] it is -0.0002 ratio; for ETEYHADGGK (Synthetic peptide) [HER2/neu peptide, position 874, 10 amino acids (ETEYHADGGK)] it is 0.0003 ratio. Take ETLEEITGY (Synthetic peptide) [HER2/neu peptide, position 401, 9 amino acids (ETLEEITGY)]: the “relative binding ratio (IC50 of standard peptide / IC50 of test peptide)” value worked out at 0.0002 ratio. Still for that read-out and setting: the figure for DLAARNVLVK (Synthetic peptide) [HER2/neu peptide, position 845, 10 amino acids (DLAARNVLVK)] is 0.0018 ratio; for ELHCPALVTY (Synthetic peptide) [HER2/neu peptide, position 265, 10 amino acids (ELHCPALVTY)] it is 0.0002 ratio. Consider ELMTFGAKPY (Synthetic peptide) [HER2/neu peptide, position 914, 10 amino acids (ELMTFGAKPY)], for which the “relative binding ratio (IC50 of standard peptide / IC50 of test peptide)” value was 0.0002 ratio. The same measure, in the same setting: the figure for DVRPQPPSPR (Synthetic peptide) [HER2/neu peptide, position 1144, 10 amino acids (DVRPQPPSPR)] is 0.0003 ratio.

A further assay concerns the target T4, HLA-A*0101 (human).
T4 construct: also called HLA-A1
Put plainly: inhibition of 125I-labeled probe peptide binding to purified HLA-A*0101, gel filtration.
ASCVTACPY (HER2/neu peptide, 9-mer) [Her2/neu.293] returned an IC50 of 455 nM. Still for that read-out and setting: the figure for ATCVTACPY (HER2/neu analog peptide) [Her2/neu.293.T2] is 49 nM. Still for that read-out and setting: the result for GTDMKLRLPY (HER2/neu analog peptide) [Her2/neu.28.Y10] reads 50 nM. The same measure, in the same setting: the result for VFETLEEITGY (HER2/neu peptide) [Her2/neu.399] reads 5560 nM.

As for GTDLFEDNY (HER2/neu analog peptide) [Her2/neu.104.D3], the IC50 is 0.9 nM. On the same count and under the same terms, the result for PTDCCHEQCAA (HER2/neu peptide, 11-mer) [Her2/neu.232] reads 58 nM; that for EADQCVACAHY (HER2/neu peptide) [Her2/neu.580], 250 nM; that for VTACPYNY (HER2/neu peptide) [Her2/neu.296], 250 nM. Turning to ETMPNPEGRY (HER2/neu analog peptide) [Her2/neu.280.T2], the IC50 amounted to 3.9 nM. As for ETHLDMLRHLY (HER2/neu peptide) [Her2/neu.40], the concentration for half-maximal inhibition (IC50) is 89 nM. This IC50 is about 23-fold higher than that of the molecule before. On the same count and under the same terms, the figure for HTDMLRHLY (HER2/neu analog peptide) [Her2/neu.42.T2] is 1.9 nM.

A further assay concerns the target T5, HLA-A*0301 (human).
T5 construct: also called HLA-A3
Put plainly: inhibition of 125I-labelled standard peptide 941.12 binding to purified HLA-A*0301, gel filtration.
In the case of PASPLDSTFY [HER2/neu peptide, position 996, 10 amino acids], the “relative binding ratio (IC50 of standard peptide / IC50 of test peptide)” value was 0.0003 ratio. Still for that read-out and setting: the result for QLVTQLMPY [HER2/neu peptide, position 795, 9 amino acids] reads 0.011 ratio; that for PLPSETDGY [HER2/neu peptide, position 1119, 9 amino acids], 0.0002 ratio. For PLQRLRIVR [HER2/neu peptide, position 95, 9 amino acids], the “relative binding ratio (IC50 of standard peptide / IC50 of test peptide)” value was determined as 0.0002 ratio. Still for that read-out and setting: the figure for QVRQVPLQR [HER2/neu peptide, position 90, 9 amino acids] is 0.0029 ratio.

For the molecule PTHDPSPLQR (H was used here) [HER2/neu peptide, position 1102, 10 amino acids], the “relative binding ratio (IC50 of standard peptide / IC50 of test peptide)” value was found to be 0.0003 ratio.

For the molecule QVCTGTDMK [HER2/neu peptide, position 24, 9 amino acids], the “relative binding ratio (IC50 of standard peptide / IC50 of test peptide)” value turned out to be 0.0007 ratio. In the case of PSGVKPDLSY [HER2/neu peptide, position 601, 10 amino acids], the “relative binding ratio (IC50 of standard peptide / IC50 of test peptide)” value was 0.0003 ratio. Same read-out and setting: the result for QALLHTANR [HER2/neu peptide, position 491, 9 amino acids] reads 0.0046 ratio; that for PLTCSPQPEY [HER2/neu peptide, position 1130, 10 amino acids], 0.0002 ratio.
